Here are results for 131 substances from the supplement of paper PMC12042874.

± gives the uncertainty stated by the source.

The nature of this data set: amyloid nucleation score (Sup35N fusion, yeast selection) (log enrichment); library NNK3; higher = more nucleation; inactive = no reads after selection. The procedure, abridged: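 DiMSum was used to calculate nucleation scores as log enrichment of output over input reads, centred on the mode score of non-aggregating sequences. Sequences with fewer than 100 input reads were not scored. Input and output came from Illumina sequencing of plasmid inserts in psi-negative yeast expressing peptides of 20 random codons fused to Sup35N, induced 24 hours with 100 μM copper sulfate and then grown 7 days at 30°C on medium lacking adenine and uracil.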

As to LSPPLVSWGGPTVRMGKCSG, the amyloid nucleation score result is “inactive”.

Take AMPMATLTVPMWLLILFVTF: the amyloid nucleation score result is “inactive”.

For the substance ENTAYWDLSGRLANQLGWRL, the amyloid nucleation score entry was “inactive”.

GAYVKPNEWCEGFENSSFEV: the amyloid nucleation score result was “inactive”.

As for LAGRHVVMWLQLMAHDIENM, the amyloid nucleation score entry is “inactive”.

On to WSTLFVIILPTKTLGYYCFW, for which the amyloid nucleation score result was “inactive”.

Turning to MDRRNGNRN, the amyloid nucleation score entry was “inactive”.

Regarding TVVMWSSKDREVDSIDMSFV, the amyloid nucleation score entry is “inactive”.

With CDGNMVGSTAIPVSFFPFGR, the amyloid nucleation score result is “inactive”.

On to FLFRNLVAWFMHSDLFFYGV, for which the amyloid nucleation score result was “inactive”.

LKQDVKTAVFFFGVD registered an amyloid nucleation score of 1.1 ± 0.15.

On to ILYICHINKGVGGQIGVMAV, for which the amyloid nucleation score entry was “inactive”.

KSKNPIIVFTYRM had an amyloid nucleation score of 1.2 ± 0.14.

As to CNLGWRNLDMVKG, the amyloid nucleation score entry was “inactive”.

Turning to VTNQSFDQPESLVEM, the amyloid nucleation score result is “inactive”.

With VCVVWNIVDQAYNMW, the amyloid nucleation score stood at 0.253 ± 0.34.

As for YMVWMLNQDRSACGINIMSI, the amyloid nucleation score worked out at 1.33 ± 0.12.

Turning to VLRQDISDDQSEAPEMNPHR, the amyloid nucleation score entry was “inactive”.

On to CSMVSWLIHCANMHRKTSTS, for which the amyloid nucleation score result was “inactive”.

GKLCYYSVYWESALNQPRSS: the amyloid nucleation score result was “inactive”.

Substance NFSIYYLDLISR came in with an amyloid nucleation score of 1.95 ± 0.098.

In the case of RHNISFT, the amyloid nucleation score result is “inactive”.

On to PSVFVRVLEKNRDLMMRTAS, for which the amyloid nucleation score entry was “inactive”.

In the case of NFSFELMKDHYIGLQMVV, the amyloid nucleation score result is “inactive”.

With SFCECFQSSKSCKIWTVWIV, the amyloid nucleation score result was “inactive”.

On to HAVPVYD, for which the amyloid nucleation score is -0.394 ± 1.9.

Consider DRLYGVSFVDF, for which the amyloid nucleation score result was “inactive”.

With TTCYTLFSTDENDNSKWICG, the amyloid nucleation score entry is “inactive”.

On to YFVCVEEVRKYMEPSELGVR, for which the amyloid nucleation score result is “inactive”.

For AFCNTIETDMNSAPVFLRAA, the amyloid nucleation score result was “inactive”.

For HVVGQDIRV, the amyloid nucleation score entry is “inactive”.

For the substance LNYVVTHLYLVLFHVMVSDG, the amyloid nucleation score result is “inactive”.

Take TNNAIGVFSLECIGFPEAGR: the amyloid nucleation score result is “inactive”.

Take SLLYEEPEVLINNSSGSAS: the amyloid nucleation score entry was “inactive”.

In the case of FHGFLYSAFSSDG, the amyloid nucleation score result is “inactive”.

FNERIRTNLFDSWTMWGMCF: the amyloid nucleation score entry was “inactive”.

Consider VAGSRCMDAWVKWCMVIRMF, for which the amyloid nucleation score is 0.247 ± 0.25.

Take GTIHFHGGNHCSLGLL: the amyloid nucleation score result was “inactive”.

For the substance TDVIYVDGPLA, the amyloid nucleation score result was “inactive”.

In the case of TGSDAYSMRMPRQPPISFVV, the amyloid nucleation score result was “inactive”.

For the substance FRSGSIDCSKLWILFY, the amyloid nucleation score result is “inactive”.

Regarding YSTPTDMLDLQFDKSASRGV, the amyloid nucleation score result was “inactive”.

In turn, LNILF came in with an amyloid nucleation score of 0.826 ± 0.11.

As for LNILIFFCFYGVWKIWKIIS, the amyloid nucleation score is -0.665 ± 1.3.

For the substance WNTGETISRRLVVYNFIEMN, the amyloid nucleation score amounted to 2.22 ± 0.056.

Take HIVSSAMSVT: the amyloid nucleation score entry is “inactive”.

For HELELRFLSGWSREFLELEG, the amyloid nucleation score result was “inactive”.

With EGPGDEIFVSG, the amyloid nucleation score result is “inactive”.

AAAMVKAMIDVITGKIPVAE: the amyloid nucleation score entry was “inactive”.

Turning to VTELDEWSGIVVEGYNACSS, the amyloid nucleation score result is “inactive”.

As to GITIWLYNPYFL, the amyloid nucleation score result was “inactive”.

Turning to DWFSMVSRSGVDLKSVKRFG, the amyloid nucleation score entry is “inactive”.

In the case of TTKQKV, the amyloid nucleation score entry is “inactive”.

Turning to DVFRVMDNLLFWKGTLALIQ, the amyloid nucleation score entry is “inactive”.

As to GLCHMFGYDFTSMNCSSPGA, the amyloid nucleation score entry was “inactive”.

As to SMWYASFTYESYLCLFKESR, the amyloid nucleation score result is “inactive”.

For MLRSDPS, the amyloid nucleation score entry is “inactive”.

Turning to LSIVQD, the amyloid nucleation score was -0.413 ± 1.1.

Consider GSASHDPTACCFYGFV, for which the amyloid nucleation score result is “inactive”.

Take LSDLEDWRNYRWSKEDLKVE: the amyloid nucleation score result was “inactive”.

For FWLRNHFHSIAGICMFVGYW, the amyloid nucleation score entry was “inactive”.

AYVLARFLEDFFMILLWDRW: the amyloid nucleation score result was “inactive”.

FNKNTDRGI: the amyloid nucleation score entry was “inactive”.

Take EYNPQLSRNSNDLYADELKE: the amyloid nucleation score result was “inactive”.

VWCPRDFFVSFVPCQ: the amyloid nucleation score entry is “inactive”.

For the substance HWTLKMTVQHVFMLGASCRY, the amyloid nucleation score result is “inactive”.

GKNSCCKLIVWDEVFGLKLC: the amyloid nucleation score result is “inactive”.

The substance NVRVFFVSYVL yielded an amyloid nucleation score of 0.885 ± 0.11.

For the substance SGWKQSGS, the amyloid nucleation score entry is “inactive”.

In the case of HKMDWYIGLFRLMHTVAVLM, the amyloid nucleation score result is “inactive”.

In the case of NHRSG, the amyloid nucleation score entry was “inactive”.

For PVSICQFIVSMANFDLCSQG, the amyloid nucleation score worked out at 1.93 ± 0.068.

Consider TAEKSGVGLFGGTSVFLFES, for which the amyloid nucleation score entry is “inactive”.

Regarding SDMCMVLFLLTVYFVMSGRC, the amyloid nucleation score worked out at 0.133 ± 0.67.

As to IMCYLSITRWKDM, the amyloid nucleation score result is “inactive”.

Consider SHGHYCIVFVFTRL, for which the amyloid nucleation score result was “inactive”.

On to ICVCEQSTVVYTKELSTFGA, for which the amyloid nucleation score amounted to 0.012 ± 0.27.

As to EKNNNRDGTDAVVIGNHKAG, the amyloid nucleation score entry is “inactive”.

Consider VVIVLLKFR, for which the amyloid nucleation score entry is “inactive”.

For QFVASELYVIGFTAVWLGCI, the amyloid nucleation score came out at 0.902 ± 0.2.

In the case of VLFINACYPLIISYQ, the amyloid nucleation score turned out to be 1.97 ± 0.066.

As for FEECGVGPYVTKREATWFNG, the amyloid nucleation score entry was “inactive”.

Regarding FFFVMSRRANVIGSLEDRSD, the amyloid nucleation score was determined as 0.936 ± 0.11.

With SPVMPMMFGNKRVPLITDLR, the amyloid nucleation score entry is “inactive”.

Turning to SRCGSIGGMKG, the amyloid nucleation score result is “inactive”.

Take FTQSTCSSHSVLFLMDVTRG: the amyloid nucleation score entry is “inactive”.

Consider VDVCITFCWIARLMV, for which the amyloid nucleation score entry was “inactive”.

On to SNPLQGDSLRSVLSCNSIYF, for which the amyloid nucleation score entry was “inactive”.

As to DIERGFGDSCKNGHFAVGSV, the amyloid nucleation score was -0.629 ± 1.1.

With APVCQWATKARIKCAHWRRT, the amyloid nucleation score result is “inactive”.

Turning to MWAGCGVSGPALGHAGSARR, the amyloid nucleation score entry was “inactive”.

EGKARGDH: the amyloid nucleation score result was “inactive”.

With SRYIRGTLCRAVSVNRPHVH, the amyloid nucleation score result is “inactive”.

For SKLWSYWDLSWLTLKVGWLR, the amyloid nucleation score result was “inactive”.

Consider REYSEA, for which the amyloid nucleation score result was “inactive”.

Turning to ISSAYCGHIGLAAINRLILT, the amyloid nucleation score result is “inactive”.

Consider SCVDLPWQMRLRHRKCQFDG, for which the amyloid nucleation score entry is “inactive”.

Take ILRYLSIVPRNFYRCYGHFG: the amyloid nucleation score entry is “inactive”.

With PLRPKLFFERNGSGYRQNRA, the amyloid nucleation score result was “inactive”.

For the substance LACLILS, the amyloid nucleation score result was “inactive”.

In turn, TIMCNIWLGFRT displayed an amyloid nucleation score of 2.01 ± 0.096.

As for VLRSAYAALFLNRFSRFDCR, the amyloid nucleation score result was “inactive”.

Regarding VFLVTSRVNIRCVVLHIINE, the amyloid nucleation score is 1.08 ± 0.11.

In the case of MSVTMMAKWTTLILGIGTGM, the amyloid nucleation score entry was “inactive”.

As for AALVGLRCIAWNYCDTRKRI, the amyloid nucleation score entry is “inactive”.

Regarding FFLPSG, the amyloid nucleation score result was “inactive”.

For MYVTIGASNKSYRLLFVARW, the amyloid nucleation score is -0.368 ± 0.75.

Consider TWRKGVSVLVLSGFVVTNQR, for which the amyloid nucleation score entry is “inactive”.

Take LAMSYYLYPGSCDLKRS: the amyloid nucleation score entry is “inactive”.

Regarding CKTLFFCMWNCFCFTVYSWF, the amyloid nucleation score result is “inactive”.

Turning to NDWREANLF, the amyloid nucleation score result was “inactive”.

Turning to LDCLLFKKCFVVRGLNDYSE, the amyloid nucleation score result is “inactive”.

For the substance TIFECRRASFNVSVEMGR, the amyloid nucleation score entry was “inactive”.

Take SEYYCYICLMVSIGFSANLL: the amyloid nucleation score entry was “inactive”.

As for NKWLDRNKG, the amyloid nucleation score entry is “inactive”.

SVIYIWDG: the amyloid nucleation score worked out at 0.425 ± 0.43.

For the substance KLYWNHAQYPNTTVSTVKFS, the amyloid nucleation score was -0.706 ± 1.4.

In the case of SRHTICHKQNSCRKVLSPPH, the amyloid nucleation score result is “inactive”.

As to ACKLIEFSSQQVFVGFGVHA, the amyloid nucleation score entry is “inactive”.

Consider IFLVVPGHDLWNCRRS, for which the amyloid nucleation score entry is “inactive”.

As for GSSKCRRLCGRVRQYSYWNR, the amyloid nucleation score result was “inactive”.

As for VLDLCDVY, the amyloid nucleation score result was “inactive”.

On to WIWLGCPSVMSEEYMSDFHI, for which the amyloid nucleation score result was “inactive”.

Take IGRAIVHWYWFSSL: the amyloid nucleation score result was “inactive”.

As to WINNIAPPYGQ, the amyloid nucleation score result is “inactive”.

For RSNYRGYFK, the amyloid nucleation score is -0.498 ± 1.4.

For the substance FLGTHEGTDRLLWCVIEEKG, the amyloid nucleation score result is “inactive”.

For FYITFFECD, the amyloid nucleation score entry is “inactive”.

Regarding IYVDVNSDP, the amyloid nucleation score result is “inactive”.

In the case of GYYNSYQAELMTTACSDYVD, the amyloid nucleation score result was “inactive”.

For the substance RTLCRLWTLCCRCRSYALFR, the amyloid nucleation score result is “inactive”.
